Test results as given in patent publication US20240383982A1 (Genmab, published 2024).

How the values were obtained:
[1] = molecular target: T1, human B7H4, full length, on cells (human, UniProt Q7Z7D3 25-282); assay: binding to tumor cells, as CD3 bispecific (monovalent) and IgG1 (bivalent)
T1 construct: Uniprot Q7Z7D3; Used for transfected HEK cells and for the B7H4-expressing human tumor cell lines (endogenous B7H4); also called VTCN1
T1 sequence: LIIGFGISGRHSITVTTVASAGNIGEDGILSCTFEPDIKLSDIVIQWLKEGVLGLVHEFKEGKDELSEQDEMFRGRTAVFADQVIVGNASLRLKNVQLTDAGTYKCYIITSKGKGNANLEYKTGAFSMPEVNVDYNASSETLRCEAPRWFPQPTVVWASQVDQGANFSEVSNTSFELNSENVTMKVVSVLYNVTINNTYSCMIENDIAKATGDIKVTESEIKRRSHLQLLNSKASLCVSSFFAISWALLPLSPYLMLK

[2] = molecular target: T1, human B7H4, full length, on cells; assay: flow cytometry on MDA-MB-468 tumor cells [MDA-MB-468 right panel]
Method: (§1) Cells (3×10⁴ cells/well) were incubated in polystyrene 96-well round-bottom plates (Greiner bio-one, cat. no. 650180) with serial dilutions of antibodies (ranging from 0.000458 to 30 μg/mL in 4-fold dilution steps) in 100 μL PBS/0.1% BSA/0.02% azide (staining buffer) at 4° C. for 30 min. Experiments were performed in technical duplicate. After washing twice in staining buffer, cells were incubated in 50 μL secondary antibody at 4° C. for 30 min. As a secondary antibody, R-Phycoerythrin (PE)-conjugated goat-anti-human IgG F(ab′)₂ (1:500 in FACS buffer; Jackson ImmunoResearch Laboratories, Inc., West Grove, PA, cat. no. 109-116-098), was used. Cells were washed twice in staining buffer, re-suspended in 30 μL FACS buffer containing Topro-3 (1:10,000 dilution) and analyzed on an iQue Screener (Intellicyt Corporation, USA). Binding curves were analyzed using non-linear regression (sigmoidal dose-response with variable slope) using GraphPad Prism V7.02 software (GraphPad Software, San Diego, CA, USA).
(§2) Binding was analyzed by flow cytometry as described above.

B7H4-IgV/B7H3-IgC [3] = molecular target: T2, B7H4-IgV/B7H3-IgC; assay: flow cytometry, HEK cells transiently transfected with B7H4-IgV/B7H3-IgC, PE anti-human IgG F(ab')2 [panel B7H4-IgV/B7H3-IgC]
T2 construct: also called chimeric molecule with the IgV domain of B7H4 and the IgC domain of B7H3
T2 full-length chimeric protein on cells: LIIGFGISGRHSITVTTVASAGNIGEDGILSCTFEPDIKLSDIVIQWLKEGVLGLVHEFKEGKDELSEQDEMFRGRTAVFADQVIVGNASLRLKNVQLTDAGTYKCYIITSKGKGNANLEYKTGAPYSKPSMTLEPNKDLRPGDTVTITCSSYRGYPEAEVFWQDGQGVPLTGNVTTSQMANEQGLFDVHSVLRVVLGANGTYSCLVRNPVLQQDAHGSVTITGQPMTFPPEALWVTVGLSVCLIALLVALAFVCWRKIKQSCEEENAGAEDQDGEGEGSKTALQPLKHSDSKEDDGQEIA
Method: After washing twice in FACS buffer, cells were incubated with secondary antibody at 4° C. for 30 min. […] Next, cells were washed twice in FACS buffer, re-suspended in 20 μL FACS buffer and analyzed on an iQue Screener (Intellicyt Corporation, USA).
Further experiments were conducted to study the B7H4 domain specificity of the B7H4 antibodies in more detail, by analysis of full dose-response curves.

[4] = molecular target: T3, recombinant hIgG1 Fc-tagged cynomolgus monkey B7H4 (Creative BioMart, cat. no. VTCN1-1517R) (cynomolgus monkey, UniProt Q7Z7D3 25-259 (human entry)); assay: BLI (Octet HTX); Fc-tagged cynomolgus B7H4 coupled to AR2G sensor, bispecific antibody in solution (monovalent B7H4 binding); 2nd experiment (R^2 0.97, below the 0.98 threshold)
T3 construct: Bought protein; also called cynomolgus monkey B7H4 extracellular domain
T3 sequence: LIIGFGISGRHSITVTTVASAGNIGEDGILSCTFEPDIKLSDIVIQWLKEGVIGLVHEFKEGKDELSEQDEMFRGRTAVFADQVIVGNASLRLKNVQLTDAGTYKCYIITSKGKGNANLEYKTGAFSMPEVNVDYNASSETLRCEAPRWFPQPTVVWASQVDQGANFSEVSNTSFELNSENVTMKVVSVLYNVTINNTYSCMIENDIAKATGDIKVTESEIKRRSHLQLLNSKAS
Method: (§3) In addition, the affinity of for cynomolgus monkey B7H4 was determined by BLI. […] Amine Reactive 2nd Generation (AR2G) biosensors (FortéBio, cat. no. 18-5092) were activated by reaction with 20 mM EDC (N-(3-Dimethylaminopropyl)-N′-ethylcarbodiimide hydrochloride) (FortéBio, cat. no. 18-1033) and 10 mM s-NHS (N-hydroxysulfosuccinimide sodium salt) (FortéBio, cat. no. 18-1067) for 300 s. The activated sensors were loaded with 10 μg/mL recombinant hIgG1 Fc-tagged cynomolgus monkey B7H4 (Creative BioMart, cat. no. VTCN1-1517R) in 10 mM Sodium Acetate pH 4.0 (FortéBio, cat. no. 18-1068) for 600 s and quenched with 1 M ethanolamine pH 8.5 (FortéBio, cat. no. 18-1071) for 300 s. […] A molecular mass of 150 kDa of the antibodies was used for calculations. For each antibody a reference sensor was used, which was incubated with Sample Diluent instead of antibody.
(§4) Data were acquired using Data Acquisition Software v9.0.0.49d (FortéBio) and analyzed with Data Analysis Software v9.0.0.12 (FortéBio). Data traces were corrected per antibody by subtraction of the reference sensor. The Y-axis was aligned to the last 10 s of the baseline, Interstep Correction alignment to dissociation and Savitzky-Golay filtering were applied. Data traces with a response<0.05 nm were excluded from analysis. […]

[5] = molecular target: T3, recombinant hIgG1 Fc-tagged cynomolgus …; assay: BLI (Octet HTX); Fc-tagged cynomolgus B7H4 coupled to AR2G sensor, bispecific antibody in solution (monovalent B7H4 binding); 2nd experiment (R^2 0.97, below the 0.98 threshold); R^2 0.97, below the 0.98 quality threshold (footnote b)
Method: as §3, §4

[6] = molecular target: T1, human B7H4, full length, on cells; assay: cell-based or functional assay
[7] = molecular target: T1, human B7H4, full length, on cells; assay: flow cytometry on SK-BR3 tumor cells [panel SK-BR3 cells]
Method: as §1, §2

B7H3 = molecular target: T4, B7H3; assay: flow cytometry, transiently transfected HEK cells, MFI as % of IgG1-B7H3-BRCA84D
T4 construct: also called human B7H3
T4 full-length protein on cells: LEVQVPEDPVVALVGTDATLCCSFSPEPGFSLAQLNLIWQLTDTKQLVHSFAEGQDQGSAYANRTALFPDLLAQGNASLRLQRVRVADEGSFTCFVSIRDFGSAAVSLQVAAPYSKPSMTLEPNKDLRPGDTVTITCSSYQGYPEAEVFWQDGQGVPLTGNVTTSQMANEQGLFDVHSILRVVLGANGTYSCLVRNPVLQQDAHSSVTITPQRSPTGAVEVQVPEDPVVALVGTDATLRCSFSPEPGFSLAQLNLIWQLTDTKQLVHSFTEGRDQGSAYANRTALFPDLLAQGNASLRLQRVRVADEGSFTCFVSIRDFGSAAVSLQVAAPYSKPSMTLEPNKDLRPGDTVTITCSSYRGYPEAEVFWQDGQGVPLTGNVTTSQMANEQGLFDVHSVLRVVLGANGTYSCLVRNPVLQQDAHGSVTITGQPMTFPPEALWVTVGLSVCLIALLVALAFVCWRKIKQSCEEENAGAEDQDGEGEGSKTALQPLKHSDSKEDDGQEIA
Method: (§5) Expression constructs were prepared encoding human B7H4, human B7H3 (Uniprot accession no. Q5ZPR3-1; SEQ ID NO: 9), or a chimeric molecule containing the IgV domain of B7H3 and the IgC domain of B7H4 (B7H3-IgV/B7H4-IgC; SEQ ID NO: 11), or a chimeric molecule containing the IgV domain of B7H4 and the IgC domain of B7H3 (B7H4-IgV/B7H3-IgC; SEQ ID NO: 10). HEK cells were transiently transfected to express these constructs.
(§6) Cells (3×10⁴ cell/well) were incubated in polystyrene 96-well round-bottom plates (Greiner bio-one, cat. no. 650101) with serial dilutions of antibodies (range 0.0046 to 10 μg/mL in 3-fold dilution steps) in 50 μL PBS/0.1% BSA/0.02% azide (FACS buffer) at 4° C. for 30 min. After washing twice in FACS buffer, cells were incubated with secondary antibody at 4° C. for 30 min. As a secondary antibody, R-Phycoerythrin (PE)-conjugated goat-anti-human IgG F(ab′)₂ (1:500 in staining buffer; Jackson ImmunoResearch Laboratories, Inc., West Grove, PA, cat. no. 109-116-098) was used. Next, cells were washed twice in FACS buffer, re-suspended in 20 μL FACS buffer and analyzed on an iQue Screener (Intellicyt Corporation, USA).

B7H4-IgV/B7H3-IgC [8] = molecular target: T2, B7H4-IgV/B7H3-IgC; assay: flow cytometry, transiently transfected HEK cells, MFI as % of the control antibody of the panel [continued) III]
Method: as §5, §6

[9] = molecular target: T3, recombinant hIgG1 Fc-tagged cynomolgus …; assay: BLI (Octet HTX); Fc-tagged cynomolgus B7H4 coupled to AR2G sensor, bispecific antibody in solution (monovalent B7H4 binding); 1st experiment
Method: as §3
Data were acquired using Data Acquisition Software v9.0.0.49d (FortéBio) and analyzed with Data Analysis Software v9.0.0.12 (FortéBio). Data traces were corrected per antibody by subtraction of the reference sensor. The Y-axis was aligned to the last 10 s of the baseline, Interstep Correction alignment to dissociation and Savitzky-Golay filtering were applied. Data traces with a response<0.05 nm were excluded from analysis. The data was fitted with the 1:1 Global Full fit model using a window of interest for the association and dissociation times set at 100 s and 200 s respectively.

B1: antibody B7H4-C1 (antibody, V domains shown)
VH: QVQLQQWGAGLLKPSETLSLTCAVYGGSFSGYYWSWIRQPPGKGLEWIGEINHSGSTNYNPSLKSRVTISIDTSKNQFSLKLTSVTAADTAVFYCARGLFNWNFDSWGQGTLVTVSS
VL: DIQMTQSPSSLSASVGDRVTITCRASQGIRNDLGWYQQKPGKAPKRLIYGASSLQSGVPSRFSGSGSGTEFTLTISSLQPEDFATYYCLQHNSYPRTFGQGTTVEIKR
notes: Parent of B7H4-C1-N52S
[1]
  binding result: binds

B2: bsIgG1-huCD3-H101G-FEALxB7H4-C5-FEAR (bispecific antibody)
heavy 1: not shown
light 1: not shown
heavy 2: QLQLQESGPGLVKPSETLSLTCTVSGGSIKSGSYYWGWIRQPPGKGLEWIGNIYYSGSTYYNPSLRSRVTISVDTSKNQFSLKLSSVTAADTAVYYCAREGSYPNQFDPWGQGTLVTVSSASTKGPSVFPLAPSSKSTSGGTAALGCLVKDYFPEPVTVSWNSGALTSGVHTFPAVLQSSGLYSLSSVVTVPSSSLGTQTYICNVNHKPSNTKVDKRVEPKSCDKTHTCPPCPAPEFEGGPSVFLFPPKPKDTLMISRTPEVTCVVVAVSHEDPEVKFNWYVDGVEVHNAKTKPREEQYNSTYRVVSVLTVLHQDWLNGKEYKCKVSNKALPAPIEKTISKAKGQPREPQVYTLPPSREEMTKNQVSLTCLVKGFYPSDIAVEWESNGQPENNYKTTPPVLDSDGSFFLYSRLTVDKSRWQQGNVFSCSVMHEALHNHYTQKSLSLSPGK
light 2: not shown
notes: also called bslgG1-huCD3-H101G-FEALxB7H4-C5-FEAR
[2]
  EC50 (read off the curve): ~0.6 µg/mL
B7H4-IgV/B7H3-IgC [3]
  EC50 (read off the curve): ~1 µg/mL
[4]
  koff: 0.0025 s⁻¹
  kon: 420000 M⁻¹ s⁻¹
[5]
  Kd: 6 nM

B3: bsIgG1-huCD3-FEALxB7H4-C1-N52S-FEAR (bispecific antibody)
heavy 1: not shown
light 1: not shown
heavy 2: QVQLQQWGAGLLKPSETLSLTCAVYGGSFSGYYWSWIRQPPGKGLEWIGEISHSGSTNYNPSLKSRVTISIDTSKNQFSLKLTSVTAADTAVFYCARGLFNWNFDSWGQGTLVTVSSASTKGPSVFPLAPSSKSTSGGTAALGCLVKDYFPEPVTVSWNSGALTSGVHTFPAVLQSSGLYSLSSVVTVPSSSLGTQTYICNVNHKPSNTKVDKRVEPKSCDKTHTCPPCPAPEFEGGPSVFLFPPKPKDTLMISRTPEVTCVVVAVSHEDPEVKFNWYVDGVEVHNAKTKPREEQYNSTYRVVSVLTVLHQDWLNGKEYKCKVSNKALPAPIEKTISKAKGQPREPQVYTLPPSREEMTKNQVSLTCLVKGFYPSDIAVEWESNGQPENNYKTTPPVLDSDGSFFLYSRLTVDKSRWQQGNVFSCSVMHEALHNHYTQKSLSLSPGK
light 2: DIQMTQSPSSLSASVGDRVTITCRASQGIRNDLGWYQQKPGKAPKRLIYGASSLQSGVPSRFSGSGSGTEFTLTISSLQPEDFATYYCLQHNSYPRTFGQGTTVEIKRTVAAPSVFIFPPSDEQLKSGTASVVCLLNNFYPREAKVQWKVDNALQSGNSQESVTEQDSKDSTYSLSSTLTLSKADYEKHKVYACEVTHQGLSSPVTKSFNRGEC
notes: also called bslgG1-huCD3-FEALxB7H4-C1-N52S-FEAR; CD3xB7H4
[6]
  IC50 of T cell-mediated cytotoxicity, HCC1954 cells, highest of 4 donors: 0.008 µg/mL
  IC50 of T cell-mediated cytotoxicity, HCC1954 cells, lowest of 4 donors: 0.001 µg/mL
  IC50 of T cell-mediated cytotoxicity, MCF7 cells, highest of 4 donors: 0.025 µg/mL
  IC50 of T cell-mediated cytotoxicity, MCF7 cells, lowest of 4 donors: 0.012 µg/mL
  IC50 of T cell-mediated cytotoxicity, MDA-MB-468 cells, highest of 4 donors: 0.004 µg/mL
  IC50 of T cell-mediated cytotoxicity, MDA-MB-468 cells, lowest of 4 donors: 0.001 µg/mL
  IC50 of T cell-mediated cytotoxicity, OVCAR3 cells, highest of 4 donors: 0.012 µg/mL
  IC50 of T cell-mediated cytotoxicity, OVCAR3 cells, lowest of 4 donors: 0.003 µg/mL
  IC50 of T cell-mediated cytotoxicity, SK-BR3 cells, highest of 4 donors: 0.016 µg/mL
  IC50 of T cell-mediated cytotoxicity, SK-BR3 cells, lowest of 4 donors: 0.002 µg/mL
[7]
  EC50 (read off the curve): ~1 µg/mL
B7H3
  binding result: no binding (tested: 10 µg/mL)
B7H4-IgV/B7H3-IgC [8]
  binding result: no binding (tested: 10 µg/mL)
[9]
  Kd: 21 nM
  koff: 0.003 s⁻¹
  kon: 140000 M⁻¹ s⁻¹
